Data on four molecules can be found in patent US20250026797A1 (GOVERNMENT OF THE UNITED STATES OF AMERICA AS REPRESENTED …, published 2025).

Residue numbers refer to the chain shown, from its start. Names and notes keep the numbering of the source. *: point of attachment. Biotin = O=C1N[C@H]2[C@H](CS[C@H]2CCCCC(=O)*)N1

B1: NH2-PGLVKSK(biotin)-COOH peptide (peptide)
peptide: H-PGLVKSK(Biotin)-OH
SMILES: CC(C)C[C@H](NC(=O)CNC(=O)[C@@H]1CCCN1)C(=O)N[C@H](C(=O)N[C@@H](CCCCN)C(=O)N[C@@H](CO)C(=O)N[C@@H](CCCCNC(=O)CCCC[C@@H]1SC[C@@H]2NC(=O)N[C@@H]21)C(=O)O)C(C)C
notes: Immobilised on streptavidin biosensors in BLI; in solution in the yeast display sorts; also called Nt-Pro peptide; target peptide
B2: yeast-surface displayed GID4 A252V variant (residues 116-300, HA-tag, (GGGGS)x3 linker, c-Myc-tag) (designed binder)
chain: YPYDVPDYAGGGGSGGGGSGGGGSGVATSLLYSGSKFRGHQKSKGNSYDVEVVLQHVDTGNSYLCGYLKIKGLTEEYPTLTTFFEGEIISKKHPFLTRKWDADEDVDRKHWGKFLAFYQYAKSFNSDDFDYEELKNGDYVFMRWKEQFLVPDHTIKDISGVSFAGFYYICFQKSAASIEGYYYHRSSEWYQSLNLTHVPEHSAPIYEFREQKLISEEDL
notes: also called A252V (Sort 3ii); not shown: yeast-surface display fusion partner encoded by the pCTCON2 plasmid
B3: yeast-surface displayed GID4 S253T variant (residues 116-300, HA-tag, (GGGGS)x3 linker, c-Myc-tag) (designed binder)
chain: B2 chain with V161A, S162T
notes: also called S253T (Sort 3i); not shown: yeast-surface display fusion partner encoded by the pCTCON2 plasmid
B4: yeast-surface displayed GID4 S283F variant (residues 116-300, HA-tag, (GGGGS)x3 linker, c-Myc-tag) (designed binder)
chain: B2 chain with V161A, S192F
notes: also called S283F (Sort 3i); not shown: yeast-surface display fusion partner encoded by the pCTCON2 plasmid

The target in assay [1] is T1, wild-type human GID4 fragment (residues 116-300), purified with N-terminal His-tag (human, UniProt Q8IVV7 116-300).
T1 construct: Expressed in E. coli BL21(DE3), nickel-column purified; also called wild-type GID4; native GID4; not shown: N-terminal six-histidine tag and TEV protease recognition site from the pET21(+) construct
T1 sequence: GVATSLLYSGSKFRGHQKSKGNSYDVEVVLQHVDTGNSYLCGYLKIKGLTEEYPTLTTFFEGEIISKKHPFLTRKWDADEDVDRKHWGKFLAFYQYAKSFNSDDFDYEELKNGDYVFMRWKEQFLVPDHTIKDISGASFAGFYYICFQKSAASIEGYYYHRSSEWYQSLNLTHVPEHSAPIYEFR
Put plainly: BLI, biotinylated peptide on streptavidin biosensor, 10 µmol/L protein. As for the experimental part: High-throughput kinetic measurements were taken using Octet Red96e system with Octet Streptavidin (SA) Biosensors in 96-well format. The highest concentration of protein was prepared by mixing 25% of the total volume with 0.4% BSA in dialysis buffer (1×PBS) and completing subsequent dilutions with 0.1% BSA in dialysis buffer. The SA biosensors were hydrated for 10 min in the dialysis buffer with 0.1% BSA then loaded with NH₂-XXXVKSK(biotin)-COOH (where X are residues specified in the experiment and figures) by moving the sensors into wells with 10 μmol/L of the biotinylated peptide and incubating for 2 min. Unbound peptide was removed by incubating in the dialysis buffer with 0.1% BSA for 2 min in the next wells. The association of GID4 wild-type and variants were then measured by incubating the biosensors in wells with the proteins for 10 min and then dissociation measured by moving the sensors into new wells with dialysis buffer with 0.1% BSA for another 10 min. All wells contained 200 μL of specified solution. The measurements were analyzed with instrument software Data Analysis HT (Version 12).
The association and dissociation of the GID4 wild-type and the six variants to the PGLVKSK(biotin) peptide were evaluated using BLI. BLI is an optical technique that can measure interaction between protein in solution ad peptide immobilized on the biosensor tip. […] The S283F variant has an apparent faster dissociation rate compared to the other singe mutation variants. The apparent faster dissociation rate due to S283F mutation is also present in A252V-S283F mutant, when compared to the A252V-S253T mutant. […] The increase in the BLI response and shift in dissociation rate can be beneficial as an Nt-Pro recognizing protein; differences in off-rate can be used as method to distinguish different Nt-amino acids.

Assay [2] concerns the target B1. In words: yeast-surface display, FACS with biotinylated peptide and streptavidin-R-phycoerythrin. Here is the method: After expression, aliquots of cells were pelleted at 3000 RPM for 3 min and suspended to 1 mL for sort samples and 100 μL for control samples such that OD₆₀₀=1 in 0.1% BSA in 1× phosphate-buffered saline (PBS, 137 mmol/L NaCl, 2.7 mmol/L KCl, 10 mmol/L sodium phosphate dibasic, 1.8 mmol/L potassium phosphate monobasic, pH 7.4). The samples were prepared with or without 10 μmol/L of NH₂-PGLVKSK(biotin)-COOH peptide, which has biotin attached to the C-terminal lysine residue. Cells were incubated, while rotating with mixing for 90 min at room temperature. Cells were then pelleted at 3600 RPM for 3 min at 4° C. and suspended in 1 mL of 0.1% BSA in PBS with 10 μg/mL of α-c-Myc (9E1) antibody conjugated to Alexa Fluor® 647 and 25 μg/mL of streptavidin conjugated to R-phycoerythrin (FIG. 1c). For control samples, no or single fluorescent probe was included in 100 μL total volume. After incubation in the dark for 40 min on ice, the cells were washed with 0.1% BSA in PBS and kept on ice until running on cell sorter.
Cells were sorted by fluorescence-activated cell sorting (FACS) on Sony SH800 cell sorter with 100 μm chip. Control samples were used to set up compensation and gate for single cells that show binding to both fluorescent probes (Q2 in FIG. 1d). A total of 70345 cells were sorted into two 5 mL FACS tubes with 1 mL of SD-CAA in each and then combined in 14 mL Falcon cell culture tube for growth with additional 2 mL of SD-CAA media and 10 μg/mL of Carb. After ˜36 hrs of growth at 30° C. and 300 RPM, cells were subcultured to expression media and the selecting and sorting repeated, with modification of using 1 μmol/L of the peptide and collecting 10000 cells from gated areas. A third round of expression, selection, and sorting was done using 0.5 μmol/L of the biotinylated peptide. In each round of cell sorting and amplification, ˜10⁷ cells were pelleted and frozen for plasmid extraction.

Turning to B1, in assay [1], the binding result is on record as “binds”.
As for B2, in assay [2], the binding result is listed as “binds”.
For B3, the binding result in assay [2] is “binds”.
The same measure, in the same setting: in the case of B4 it was “binds”.
